Non-standard residues stand in square brackets, D forms with d. No end group written: not given here. *: point of attachment. X2 = Eicosanedioic‑γGlu‑(AEEA)2‑Lys(Ac)‑Gly, CC(=O)NCCCC[C@H](NC(=O)COCCOCCNC(=O)COCCOCCNC(=O)CC[C@H](NC(=O)CCCCCCCCCCCCCCCCCCC(=O)O)C(=O)O)C(=O)NCC(=O)*; Aib = CC(C)(N)C(=O)O
B1: MOD-604 KPI (mutated OXM analog of any one of SEQ ID NOs: 5 to 7) (peptide)
peptide: HXQGTFTSDYSKYLDSKKAQEFVQWLLNXGRNRNNIAC
HELM: PEPTIDE1{H.[Aib].Q.G.T.F.T.S.D.Y.S.K.Y.L.D.S.K.K.A.Q.E.F.V.Q.W.L.L.N.[Aib].G.R.N.R.N.N.I.A.C.[am]}$$$$V2.0; N-terminus assumed
SMILES: CC[C@H](C)[C@H](NC(=O)[C@H](CC(N)=O)NC(=O)[C@H](CC(N)=O)NC(=O)[C@H](CCCNC(=N)N)NC(=O)[C@H](CC(N)=O)NC(=O)[C@H](CCCNC(=N)N)NC(=O)CNC(=O)C(C)(C)NC(=O)[C@H](CC(N)=O)NC(=O)[C@H](CC(C)C)NC(=O)[C@H](CC(C)C)NC(=O)[C@H](Cc1c[nH]c2ccccc12)NC(=O)[C@H](CCC(N)=O)NC(=O)[C@@H](NC(=O)[C@H](Cc1ccccc1)NC(=O)[C@H](CCC(=O)O)NC(=O)[C@H](CCC(N)=O)NC(=O)[C@H](C)NC(=O)[C@H](CCCCN)NC(=O)[C@H](CCCCN)NC(=O)[C@H](CO)NC(=O)[C@H](CC(=O)O)NC(=O)[C@H](CC(C)C)NC(=O)[C@H](Cc1ccc(O)cc1)NC(=O)[C@H](CCCCN)NC(=O)[C@H](CO)NC(=O)[C@H](Cc1ccc(O)cc1)NC(=O)[C@H](CC(=O)O)NC(=O)[C@H](CO)NC(=O)[C@@H](NC(=O)[C@H](Cc1ccccc1)NC(=O)[C@@H](NC(=O)CNC(=O)[C@H](CCC(N)=O)NC(=O)C(C)(C)NC(=O)[C@@H](N)Cc1c[nH]cn1)[C@@H](C)O)[C@@H](C)O)C(C)C)C(=O)N[C@@H](C)C(=O)N[C@@H](CS)C(N)=O
B2: OPK-88003 FA mono conjugate (modified OXM of Formula XXII or Formula XXIII; in Table 9 a mixture of both) (peptide)
peptide: HXQGTFTSDYSKYLDSKKAQEFVQWLLNXGRNRNNIACC
modifications: Aib at positions 2 and 29; one Eicosanedioic-gGlu-Glu-AEEA-AEEA-AEEA-Lys(Ac-)-Gly-OH binder on Cys38 (Formula XXII, SEQ ID NO: 47) or on Cys39 (Formula XXIII, SEQ ID NO: 48); C-terminal amide (backbone C^38C^39-NH2)

Experiments:
Experiment in all cases: cell-based or functional assay
[1] = biological target: glucagon-like peptide-1 receptor (GLP-1R)
[2] = biological target: glucagon-like peptide-1 receptor (GLP-1R); remark: listed apart in the source
glucagon receptor (GCGR) [3] = biological target: glucagon receptor (GCGR)
[4] = biological target: glucagon-like peptide-1 receptor (GLP-1R); remark: listed apart in the source
glucagon receptor (GCGR) [5] = biological target: glucagon receptor (GCGR); remark: listed apart in the source
[6] = biological target: glucagon-like peptide-1 receptor (GLP-1R); remark: listed apart in the source
glucagon receptor (GCGR) [7] = biological target: glucagon receptor (GCGR); remark: listed apart in the source

| Binder | EC50 (nM), GLP-1 activity [1] | % EC50 compare to KPI (GLP1) [4] | Activity fold reduction compared to OPK-88003 KPI (GLP1) [4] | EC50 [nM] GLP1, CBA potency assay [4] | % EC50 compare to KPI (GCGR) (glucagon receptor (GCGR) [5]) | Activity fold reduction compared to OPK-88003 KPI (GCGR) (glucagon receptor (GCGR) [5]) | EC50 [nM] GCGR, CBA potency assay (glucagon receptor (GCGR) [5]) | further results |
| --- | --- | --- | --- | --- | --- | --- | --- | --- |
| H[Aib]QGTFTSDYSKYLDSKKAQEFVQWLLN[Aib]GRNRNNIAC(X2)-NH2 [OPK-88604 (modified OXM of Formula XIV)] | 0.09 nM |  |  |  |  |  |  | EC50 (nM) GLP-1R, GLP-1 activity in vitro [2]: 0.0159 nM; EC50 (nM) GCGR, glucagon activity in vitro (glucagon receptor (GCGR) [3]): 0.164 nM |
| H[Aib]QGTFTSDYSKYLDSKKAQEFVQWLLN[Aib]GRNRNNIAC(Eicosanedioic‑γGlu‑Glu‑(AEEA)3‑Lys(Ac)‑Gly)-NH2 [Variant 3 (Formula XVI)] | 0.15 nM |  |  |  |  |  |  |  |
| B1 | 0.13 nM | 45% | 2.2 fold | 0.282 nM | 72% | 1.4 fold | 0.83 nM |  |
| B2 | 0.21 nM | 60% | 1.65 fold | 0.21 nM | 38% | 2.65 fold | 1.6 nM | % EC50 compare to KPI (GLP1), with HSA added (FA-conjugate + HSA) [6]: 8.9%; % EC50 compare to KPI (GLP1), without HSA [6]: 100%; Activity fold reduction compared to OPK-88003 KPI (GLP1), with HSA added (FA-conjugate + HSA) [6]: 11.2 fold; EC50 [nM] GLP1, CBA potency assay, with HSA added (FA-conjugate + HSA) [6]: 2.27 nM; EC50 [nM] GLP1, CBA potency assay, without HSA [6]: 0.2 nM; % EC50 compare to KPI (GCGR), with HSA added (FA-conjugate + HSA) (glucagon receptor (GCGR) [7]): 2.6%; % EC50 compare to KPI (GCGR), without HSA (glucagon receptor (GCGR) [7]): 45%; Activity fold reduction compared to OPK-88003 KPI (GCGR), with HSA added (FA-conjugate + HSA) (glucagon receptor (GCGR) [7]): 38.6 fold; Activity fold reduction compared to OPK-88003 KPI (GCGR), without HSA (glucagon receptor (GCGR) [7]): 2.2 fold; EC50 [nM] GCGR, CBA potency assay, with HSA added (FA-conjugate + HSA) (glucagon receptor (GCGR) [7]): 52.9 nM; EC50 [nM] GCGR, CBA potency assay, without HSA (glucagon receptor (GCGR) [7]): 3.04 nM |
| H[Aib]QGTFTSDYSKYLDSKKAQEFVQWLLN[Aib]GRNRNNIAC-NH2 (not fully specified (residue 38)) [Variant 2 (Formula XV)] | 0.1 nM |  |  |  |  |  |  |  |
